Source: publication PMC9135616 (Biophysics and Physicobiology, 2022)

Tests used:
Assay in all cases: SEC
[1] = target: T1, wild-type KaiC (Synechococcus elongatus PCC 7942, UniProt Q79PF4 1-519)
T1 sequence: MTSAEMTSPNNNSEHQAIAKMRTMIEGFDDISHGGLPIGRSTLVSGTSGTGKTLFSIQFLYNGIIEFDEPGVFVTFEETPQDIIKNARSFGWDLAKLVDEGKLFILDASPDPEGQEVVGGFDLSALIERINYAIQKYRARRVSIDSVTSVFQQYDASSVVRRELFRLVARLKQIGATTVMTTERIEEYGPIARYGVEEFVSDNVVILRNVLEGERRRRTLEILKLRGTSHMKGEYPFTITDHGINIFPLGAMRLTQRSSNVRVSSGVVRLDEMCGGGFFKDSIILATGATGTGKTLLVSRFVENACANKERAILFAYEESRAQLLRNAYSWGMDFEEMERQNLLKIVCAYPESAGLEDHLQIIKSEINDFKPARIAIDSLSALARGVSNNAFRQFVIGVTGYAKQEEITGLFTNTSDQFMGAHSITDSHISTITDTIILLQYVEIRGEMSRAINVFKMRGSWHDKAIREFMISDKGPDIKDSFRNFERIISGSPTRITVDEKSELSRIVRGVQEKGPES

[2] = target: T2, KaiC^C306A (Synechococcus elongatus PCC 7942, UniProt Q79PF4 1-519, C306A)
T2 sequence: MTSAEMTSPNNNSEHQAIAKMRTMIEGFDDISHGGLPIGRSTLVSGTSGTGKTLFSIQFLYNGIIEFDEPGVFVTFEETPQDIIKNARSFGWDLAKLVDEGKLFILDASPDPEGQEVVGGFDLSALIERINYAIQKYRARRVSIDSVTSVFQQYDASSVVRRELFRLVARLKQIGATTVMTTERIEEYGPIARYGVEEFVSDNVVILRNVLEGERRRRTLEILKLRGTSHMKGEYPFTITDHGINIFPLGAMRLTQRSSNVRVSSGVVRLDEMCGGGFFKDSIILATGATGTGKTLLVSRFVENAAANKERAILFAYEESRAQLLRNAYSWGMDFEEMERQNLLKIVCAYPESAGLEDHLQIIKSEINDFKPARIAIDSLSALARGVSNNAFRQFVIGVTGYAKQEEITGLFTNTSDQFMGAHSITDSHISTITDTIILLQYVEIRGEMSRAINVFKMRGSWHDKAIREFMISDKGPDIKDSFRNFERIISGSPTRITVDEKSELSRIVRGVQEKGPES

[3] = target: T3, KaiC^F470Y (Synechococcus elongatus PCC 7942, UniProt Q79PF4 1-519, F470Y)
T3 sequence: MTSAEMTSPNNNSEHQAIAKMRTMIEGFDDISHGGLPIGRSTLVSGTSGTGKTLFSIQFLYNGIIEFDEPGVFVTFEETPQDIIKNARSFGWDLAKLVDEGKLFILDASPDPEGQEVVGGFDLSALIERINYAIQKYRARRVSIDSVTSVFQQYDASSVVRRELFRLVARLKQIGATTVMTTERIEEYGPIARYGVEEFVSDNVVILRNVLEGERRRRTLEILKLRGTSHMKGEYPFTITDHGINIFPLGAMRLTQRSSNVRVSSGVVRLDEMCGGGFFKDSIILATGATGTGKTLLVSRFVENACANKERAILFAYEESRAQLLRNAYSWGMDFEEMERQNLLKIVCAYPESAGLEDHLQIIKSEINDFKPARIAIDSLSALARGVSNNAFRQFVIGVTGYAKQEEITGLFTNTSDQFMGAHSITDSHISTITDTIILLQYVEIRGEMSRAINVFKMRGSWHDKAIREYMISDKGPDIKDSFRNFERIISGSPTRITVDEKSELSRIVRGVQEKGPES

[4] = target: T4, KaiC^S157P (Synechococcus elongatus PCC 7942, UniProt Q79PF4 1-519, S157P)
T4 sequence: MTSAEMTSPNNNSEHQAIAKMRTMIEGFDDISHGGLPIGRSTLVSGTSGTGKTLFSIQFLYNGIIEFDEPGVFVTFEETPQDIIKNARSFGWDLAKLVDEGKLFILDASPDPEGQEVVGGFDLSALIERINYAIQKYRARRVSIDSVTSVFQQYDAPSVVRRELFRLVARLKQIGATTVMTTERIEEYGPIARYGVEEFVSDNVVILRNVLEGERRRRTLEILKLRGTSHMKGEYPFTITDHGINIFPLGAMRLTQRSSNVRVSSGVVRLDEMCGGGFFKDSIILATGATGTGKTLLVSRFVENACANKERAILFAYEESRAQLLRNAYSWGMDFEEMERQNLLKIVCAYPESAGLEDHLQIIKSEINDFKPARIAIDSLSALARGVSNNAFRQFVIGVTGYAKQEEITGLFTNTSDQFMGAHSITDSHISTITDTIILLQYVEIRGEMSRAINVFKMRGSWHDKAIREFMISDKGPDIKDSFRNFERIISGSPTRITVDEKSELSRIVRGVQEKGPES

[5] = target: T5, KaiC-pSpT-mimicking S431D/T432E KaiC mutant (Synechococcus elongatus PCC 7942, UniProt Q79PF4 1-519, S431D | T432E)
T5 sequence: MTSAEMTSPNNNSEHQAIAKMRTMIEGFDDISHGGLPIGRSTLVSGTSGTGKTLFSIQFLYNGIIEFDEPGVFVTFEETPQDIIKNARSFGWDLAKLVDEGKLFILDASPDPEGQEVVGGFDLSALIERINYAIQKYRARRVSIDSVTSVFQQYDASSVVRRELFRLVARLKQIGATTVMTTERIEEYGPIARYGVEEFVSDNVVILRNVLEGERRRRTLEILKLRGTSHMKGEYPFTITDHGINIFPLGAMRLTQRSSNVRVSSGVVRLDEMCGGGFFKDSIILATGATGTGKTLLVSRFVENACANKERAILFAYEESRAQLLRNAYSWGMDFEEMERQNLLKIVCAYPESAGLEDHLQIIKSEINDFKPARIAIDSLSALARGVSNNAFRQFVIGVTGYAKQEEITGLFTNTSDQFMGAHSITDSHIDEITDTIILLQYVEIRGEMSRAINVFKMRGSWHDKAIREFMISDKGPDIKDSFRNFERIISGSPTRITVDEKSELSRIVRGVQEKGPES

B1: KaiB (natural protein)
chain: MSPRKTYILKLYVAGNTPNSVRALKTLKNILEVEFQGVYALKVIDVLKNPQLAEEDKILATPTLAKVLPLPVRRIIGDLSDREKVLIGLDLLYGELQDSDDF
koff [1]: 2.39e-05 s⁻¹
binding result [2]: binds
binding result [3]: binds
binding result [4]: binds
koff [5]: 1.56e-06 s⁻¹
